Results taken from the supplement of paper PMC10126150.
± gives the standard deviation of the averaged measurements.

Tested on: ATP
Experiment: switch fluorescence ratio, 500 uM ATP over buffer (Cy3 cluster intensity, sum of 5 cycles each) (fold (ratio)); higher = stronger signal-on switching upon ATP binding; sequences stand for … in TCGTCGGCAGCGTCAGATGTGTATAAGAGACAGTTTTTTTTTTTTTTTTTTTTTTTTT…TC
Details: aptamer strand: ATP DNA aptamer (quencher-CACCTGGGGGAGTATTGCGGAGGAAGG + anchor), 100 nM annealed; ATP concentration: 500 uM
Method in brief: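 Imaging in selection buffer was followed by imaging after 15 min with 500 uM ATP at 22 °C, for Cy3-labelled switching-strand clusters annealed to 100 nM quencher-labelled ATP aptamer on a modified Illumina MiSeq flow-cell. Five of these buffer/ATP cycles ran, separated by NaOH stripping and re-annealing. The fluorescence ratio per cluster is summed target-cycle over summed buffer-cycle Cy3 intensity, averaged per switch-domain sequence; clusters outside 100-1000 RFU were removed.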
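Also: ATP exposure 15 min at 22 °C before imaging.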

| Sequence | switch fluorescence ratio |
| --- | --- |
| GAGACACATA | 1.09 ± 0.013 |
| TTTGCGTTAC | 1.58 ± 0.053 |
| TTGGAGGACA | 1.06 ± 0.019 |
| GATTACGGCC | 1.06 ± 0.035 |
| GATTTCATCA | 0.967 ± 0.057 |
| TGCTAGAGCT | 0.997 ± 0.011 |
| AATCGGCCGG | 1.01 ± 0.053 |
| CAATTGGGGT | 1.03 ± 0.06 |
| TTGCAGACTT | 1.05 ± 0.072 |
| TTTGCGACGT | 1.02 ± 0.025 |
| CGTTCTGGTC | 0.999 ± 0.046 |
| GGGCAGGCGA | 1.011 ± 0.0077 |
| AAATAAACGC | 1.025 ± 0.0031 |
| TCTTTCCTTC | 1.04 ± 0.12 |
| TTTGGGTGTT | 1.02 ± 0.046 |
| TAAACCTAGC | 1.46 ± 0.062 |
| TTCCGGGCCG | 1.03 ± 0.037 |
| CGTATGTTGG | 1.04 ± 0.012 |
| GAACGTGGCA | 0.9956 ± 0.0095 |
| TGGGTAACAT | 0.99 ± 0.031 |
| TTCGTGTGGC | 0.932 ± 0.02 |
| AGTGTGAGCT | 1 ± 0.037 |
| GGGTAGATGC | 1.01 ± 0.052 |
| GAGCGGGGGA | 1.03 ± 0.017 |
| TTCTAGCTAT | 1.58 ± 0.78 |
| GACCAAGAAT | 1.06 ± 0.03 |

| Sequence | switch fluorescence ratio |
| --- | --- |
| GATGAGTTGA | 0.988 ± 0.02 |
| TTTAGATTTG | 1.024 ± 0.0048 |
| AGTTTTGGGG | 0.981 ± 0.043 |
| AAATTAGCTT | 0.987 ± 0.084 |
| GCTTTTTTTG | 1.017 ± 0.0079 |
| GTCGAGGAAT | 1.003 ± 0.0092 |
| TGCCGGACCG | 1.02 ± 0.033 |
| GTGTCTGTTG | 0.981 ± 0.02 |
| TGCTGGGGTC | 0.977 ± 0.016 |
| GGGCACTTGT | 1.01 ± 0.04 |
| TTTCAAAACA | 1.0474 ± 0.00015 |
| CTGCTGGGGC | 1.05 ± 0.026 |
| TGATGTGCA | 1.01 ± 0.17 |
| GTGCAAGGCG | 0.988 ± 0.032 |
| AGGTGAAATC | 1.26 ± 0.34 |
| CAGGTTGATG | 1.01 ± 0.032 |
| TTAGTTGATA | 1.01 ± 0.018 |
| GGCGGGTGGG | 1.03 ± 0.089 |
| ATTGGGGTGT | 1.01 ± 0.022 |
| TTTGGAGGCT | 1.02 ± 0.063 |
| TAGCAGTTGG | 0.988 ± 0.02 |
| TTTGACGTGC | 1.02 ± 0.033 |
| TATTTACTCG | 1.05 ± 0.073 |
| CAGGGGAGCA | 1.02 ± 0.039 |
| GAAGGTTCGT | 1 ± 0.034 |
| GGAACGTTCT | 0.995 ± 0.046 |

| Sequence | switch fluorescence ratio |
| --- | --- |
| TGTGGGGAGG | 0.969 ± 0.027 |
| TGAACTAGTA | 0.9828 ± 0.0046 |
| CATCCTTTAA | 1.007 ± 0.0082 |
| TGCGGGGTGC | 1.02 ± 0.0028 |
| CGTTATTTAT | 0.9985 ± 0.0089 |
| TGGTTAGGGA | 1.01 ± 0.026 |
| ATTCCGGGAG | 1.07 ± 0.064 |
| GATGAGATTT | 0.972 ± 0.046 |
| TATTCACTTG | 1.04 ± 0.025 |
| GCGGAAAGGG | 0.992 ± 0.021 |
| CGGGAGAGAG | 1.03 ± 0.014 |
| ATGCATCTAT | 0.989 ± 0.011 |
| CGTTCCAGGC | 1.083 ± 0.0064 |
| TGGGAGAGGT | 0.996 ± 0.02 |
| TCGGGAGAAG | 1.01 ± 0.013 |
| TTTTTTCCCG | 1.09 ± 0.11 |
| GGCGGGATGC | 1 ± 0.031 |
| TTTGAAGCCG | 0.989 ± 0.024 |
| GGTCGTTTGC | 1.05 ± 0.074 |
| GCGGGACGTT | 0.96828 ± 0.00072 |
| TGGGGGCGTC | 1.02 ± 0.036 |
| ATGTTAGCGT | 0.9941 ± 0.0048 |
| AGTTAGCAAT | 2.45 ± 0.11 |
| GTATGGTCGG | 0.9991 ± 0.0074 |
| ACGCGATTTT | 1.35 ± 0.46 |
| TGAGCATGAA | 1 ± 0.024 |

| Sequence | switch fluorescence ratio |
| --- | --- |
| GACTAAAATG | 1.02 ± 0.019 |
| GTTGTTATTG | 1.01 ± 0.021 |
| CGGGGTTTT | 0.999 ± 0.046 |
| TCCAGTTATT | 1 ± 0.019 |
| TGGCTTAAAC | 1.18 ± 0.28 |
| AAGTTGGGAT | 0.972 ± 0.037 |
| AAAGGGTTGA | 0.9559 ± 0.0011 |
| GTATCTTGGG | 1.04 ± 0.042 |
| TGCAGATTTA | 1.01 ± 0.014 |
| TAGTGGGGGA | 0.995 ± 0.015 |
| AAAATAAGGT | 0.969 ± 0.043 |
| ATACGATTTG | 0.971 ± 0.038 |
| CCGAACGTCG | 1.88 ± 0.27 |
| GGGAGTTAGG | 0.9609 ± 0.0049 |
| TTAGGTTCTC | 0.991 ± 0.015 |
| CGGGGTTCGG | 0.996 ± 0.023 |
| CGGTGATTGA | 1.004 ± 0.0023 |
| GGGGGTATCA | 0.98049 ± 0.00015 |
| TTTCAGTCAT | 0.978 ± 0.015 |
| CTGGTTTGAG | 0.97 ± 0.012 |
| GTTTTTCTTT | 0.988 ± 0.024 |
| AATTTGAGGA | 0.972 ± 0.02 |
| CAATTACGCA | 1.186 ± 0.00065 |
| AGCAGGGGTG | 1.09 ± 0.013 |
| GTGGGCGGTC | 0.995 ± 0.057 |
| TTGGATCGCA | 0.985 ± 0.017 |

| Sequence | switch fluorescence ratio |
| --- | --- |
| CCGGTTGTGA | 1.177 ± 0.0083 |
| ATGAGTTGCG | 0.977 ± 0.029 |
| GGGGTTCGTT | 1.01 ± 0.072 |
| AGCCTTACGT | 1.115 ± 0.0039 |
| TAATGGTTGG | 0.99283 ± 0.00085 |
| GTCTGGTTGA | 1.02 ± 0.033 |
| TTGAGATATG | 0.9989 ± 0.0076 |
| AGTGGGTAAG | 0.9869 ± 0.0085 |
| ATACGGGAAT | 1.05 ± 0.022 |
| AGCGGAACCC | 1.03 ± 0.023 |
| GAAGGGTTGG | 0.999 ± 0.014 |
| TTCTGTGTTT | 1.01 ± 0.037 |
| TGAAAAAAAG | 0.973 ± 0.04 |
| TTTTCTTCTC | 1.03 ± 0.028 |
| TGGTACAAAA | 1.04 ± 0.025 |
| TTAGACATAT | 1.02 ± 0.021 |
| ACGGCTAAGG | 1.06 ± 0.029 |
| TTTTTTATTT | 0.996 ± 0.025 |
| TATTTGAGCT | 1.03 ± 0.037 |
| GGGGAGTGTT | 0.998 ± 0.039 |
| ACATACAATT | 1.23 ± 0.091 |
| GTGGATAATG | 0.996 ± 0.056 |
| TAGAAAGGGT | 1.01 ± 0.041 |
| TCATTCTGGG | 1.008 ± 0.0097 |
| TTTTTGGAAC | 1.01 ± 0.023 |
| AATTGATAAA | 0.984 ± 0.042 |

| Sequence | switch fluorescence ratio |
| --- | --- |
| CCAAGTAGTA | 1.03 ± 0.032 |
| TTTTTTATTC | 1.15 ± 0.29 |
| GGTGGCATGT | 0.997 ± 0.054 |
| TGGTGTATCC | 0.985 ± 0.019 |
| TTACTTATAA | 1.04 ± 0.018 |
| AACAGTGTAT | 1.01 ± 0.03 |
| TATTGTCAGA | 1.01 ± 0.019 |
| TTAAACCGCT | 1.08 ± 0.053 |
| ATAGATGGCC | 0.95 ± 0.056 |
| TCATTGATCG | 0.987 ± 0.011 |
| GGGGTTTGTG | 0.997 ± 0.037 |
| TGTTTTGATC | 0.977 ± 0.029 |
| GGGTGGTGGA | 1.01 ± 0.019 |
| GGCGTATGTG | 0.95983 ± 0.00095 |
| TTGTAGGACC | 1 ± 0.056 |
| TTTTAAACTG | 1.1 ± 0.066 |
| TATTTTAGAG | 0.966 ± 0.018 |
| ATAGTCCCAC | 0.9901 ± 0.009 |
| GCTGTAGGGG | 1.02 ± 0.081 |
| TCATTTTTGG | 1 ± 0.012 |
| TATCTTTGCG | 0.965 ± 0.01 |
| TACAGGGCTG | 1.02 ± 0.057 |
| TATAAGTACA | 1.38 ± 0.04 |
